The record followed here is patent US5919694A, “Mutant phosphoenolpyruvate carboxylase, its gene, and production method of amino acid” (Ajinomoto Co., Inc., priority 1993, dated 1999).

The test system of one data set is Escherichia coli HB101. Nature of the data set: Growth inhibition of Escherichia coli HB101 by aspartic acid analog compounds and recovery by additives. It is filed as cell-based. Particulars: E. coli HB101 in M9 medium, absorbance at 660 nm; FIGS. 1-3. As to the method:
It is proposed, as a general structure of an inhibitor of phosphoenolpyruvate carboxylase, that a C4 dicarboxylic acid structure is essentially provided. From such a viewpoint, various compounds were subjected to screening by the present inventors. Escherichia coli HB101 was cultivated in an LB medium, and transferred to M9 media (containing 20 μg/ml of thiamine and 3 μg/ml of each of Leu and Pro) containing any one of DL-2-amino-4-phosphonobutyric acid, bromosuccinic acid, meso-2,3-dibromosuccinic acid, 2,2-difluorosuccinic acid, 3-bromopyruvic acid, α-ketobutyric acid, α-ketoadipinic acid DL-threo-β-hydroxyaspartic acids L-aspartic acid β-metyl ester α-metyl-DL-aspartic acid, 2,3-diaminosuccinic acid or aspartic acid-β-hydrazide, and absorbance of the medium was measured at 660 nm with the passage of time, thereby growth was monitored.
Further, when these compounds were present at their growth inhibitory concentrations, it was investigated whether or not the inhibition was recovered by addition of nucleic acids (each of uridine, adenosine: 10 mg/dl), glutamic acid or amino acids of the aspartic acid family (Asp: 0.025%, each of Met, Thr, Lys: 0.1%).
Further, growth recovery of Escherichia coli, in the case of addition of the aforementioned inhibition recovering substances alone or as a mixture of 2 species or 3 species, is shown in FIGS. 4-6. […]

Data set [1] relates to phosphoenolpyruvate carboxylase. Nature of the data set: Sensitivity of phosphoenolpyruvate carboxylase activity to aspartic acid. Type of data set: biochemical, Escherichia coli. An excerpt:
When the microorganism transformed with the DNA sequence of the present invention as described above is cultivated, and this DNA sequence is expressed, then a mutant enzyme is obtained. It becomes apparent, by measuring the activity by adding aspartic acid to an enzyme reaction system, whether or not the mutant enzyme thus obtained has desensitized feedback inhibition by aspartic acid. It is possible for the measurement of the enzyme activity to use a spectrometric method (Yoshinage, T., Izui, K. and Katsuki, H., J. Biochem., 68, 747-750 (1970)) and the like.
Sensitivity to aspartic acid was investigated in accordance with a known method (Yoshinaga, T., Izui, K. and Katsuki, H., J. Biochem., 68, 747-750 (1970)). Namely, as a result of measurement of the enzyme activity produced by each of the transformants or Escherichia coli harboring pS2 in the presence of acetyl-coenzyme A known to affect the activity in an activity measurement system at a concentration of 0.1 mM or 1 mM, sensitivity to aspartic acid was measured as shown in FIGS. 9 and 10.
Sensitivity to aspartic acid was investigated in accordance with a known method (Yoshinaga, T., Izui, K. and Katsuki, H., J. Biochem., 68, 747-750 (1970)). Namely, as a result of measurement of the enzyme activity in the presence of acetyl-coenzyme A known to affect the activity in an activity measurement system at a concentration of 1 mM or 2 mM, sensitivity to aspartic acid was measured as shown in FIG. 12.
Sensitivity to aspartic acid was investigated in accordance with a known method (Yoshinaga, T., Izui, K. and Katsuki, H., J. Biochem., 68, 747-750 (1970)). Namely, as a result of measurement of the enzyme activity in the presence of acetyl-coenzyme A known to affect the activity in an activity measurement system at a concentration of 1 mM or 2 mM, sensitivity to aspartic acid was measured as shown in FIG. 13.

Consider `N[C@H](C(=O)O)[C@H](O)C(=O)O` (relative stereo) [DL-threo-β-hydroxyaspartate], for which the “growth inhibition of Escherichia coli” value in the data set on Escherichia coli HB101 is given as “growth inhibition”.
On to `NNC(=O)CC(N)C(=O)O` (stereo not drawn) [aspartate-β-hydrazide], for which the “growth inhibition of Escherichia coli” value in the data set with Escherichia coli HB101 is “growth inhibition”.

B1: wild type enzyme: wild type phosphoenolpyruvate carboxylase of Escherichia coli, expressed from pS2 or pT2 (protein, UniProt P00864 1-883, looked up)
Phosphoenolpyruvate …: MNEQYSALRSNVSMLGKVLGETIKDALGEHILERVETIRKLSKSSRAGNDANRQELLTTLQNLSNDELLPVARAFSQFLNLANTAEQYHSISPKGEAASNPEVIARTLRKLKNQPELSEDTIKKAVESLSLELVLTAHPTEITRRTLIHKMVEVNACLKQLDNKDIADYEHNQLMRRLRQLIAQSWHTDEIRKLRPSPVDEAKWGFAVVENSLWQGVPNYLRELNEQLEENLGYKLPVEFVPVRFTSWMGGDRDGNPNVTADITRHVLLLSRWKATDLFLKDIQVLVSELSMVEATPELLALVGEEGAAEPYRYLMKNLRSRLMATQAWLEARLKGEELPKPEGLLTQNEELWEPLYACYQSLQACGMGIIANGDLLDTLRRVKCFGVPLVRIDIRQESTRHTEALGELTRYLGIGDYESWSEADKQAFLIRELNSKRPLLPRNWQPSAETREVLDTCQVIAEAPQGSIAAYVISMAKTPSDVLAVHLLLKEAGIGFAMPVAPLFETLDDLNNANDVMTQLLNIDWYRGLIQGKQMVMIGYSDSAKDAGVMAASWAQYQAQDALIKTCEKAGIELTLFHGRGGSIGRGGAPAHAALLSQPPGSLKGGLRVTEQGEMIRFKYGLPEITVSSLSLYTGAILEANLLPPPEPKESWRRIMDELSVISCDVYRGYVRENKDFVPYFRSATPEQELGKLPLGSRPAKRRPTGGVESLRAIPWIFAWTQNRLMLPAWLGAGTALQKVVEDGKQSELEAMCRDWPFFSTRLGMLEMVFAKADLWLAEYYDQRLVDKALWPLGKELRNLQEEDIKVVLAIANDSHLMADLPWIAESIQLRNIYTDPLNVLQAELLHRSRQAEKEGQEPDPRVEQALMVTIAGIAAGMRNTG
As to B1, the “enzyme activity at high aspartic acid concentration (sensitivity to aspartic acid)” value in data set [1] (Example 2, acetyl-coenzyme A 0.1 mM or 1 mM, FIGS. 9 and 10) is “loses its activity”; in data set [1] (Example 6 <3>, pT2R438C (438th Arg to Cys), acetyl-coenzyme A 1 mM or 2 mM, FIG. 12), “substantially loses its activity”; in data set [1] (Example 6 <5>, pT2K620S, acetyl-coenzyme A 1 mM or 2 mM, FIG. 13), “substantially loses its activity”.
